In PMC3411838:
Changes are numbered by the printed parent chain. Names and notes keep the numbering of the source.

T1: Myc-tagged CARMA1-CARD (wild type) (mouse) (UniProt Q8CIS0)
T1 sequence: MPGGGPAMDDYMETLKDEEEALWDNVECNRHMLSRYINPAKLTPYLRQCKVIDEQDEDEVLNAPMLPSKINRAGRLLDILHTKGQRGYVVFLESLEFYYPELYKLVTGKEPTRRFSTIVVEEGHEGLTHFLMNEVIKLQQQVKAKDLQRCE

B1: full-length BCL10 E50A (pEGFP-C1) (natural protein)
chain: MEAPAPSLTEEDLTEVKKDALENLRVYLCEKIIAERHFDHLRAKKILSRADTEEISCRTSSRKRAGKLLDYLQENPRGLDTLVESIRREKTQSFLIQKITDEVLKLRNIKLEHLKGLKCSSCEPFAAGATNNLSRCNSDESNLSEKQRASTVMYHPEGESSTAPFFSMASSLNLPVLEVGRTENSSFSSATLPRPGDPGAPPLPPDLRLEEGGSCGNSSEMFLPLRSRALSRQ
B2: full-length BCL10 E54A (pEGFP-C1) (natural protein)
chain: B1 chain with A50E, E54A
B3: full-length BCL10 E53A (pEGFP-C1) (natural protein)
chain: B1 chain with A50E, E53A

molecular target: T1, Myc-tagged CARMA1-CARD (wild type) (mouse)

NF-κB activation-dependent dual luciferase reporter in HEK293T, full-length BCL10 mutant against wild type (CARMA1 not co-transfected)	Binder
< 40%	B1
< 40%	B2
< 40%	B3
